T1: Fuzzy^LD1-Inturned^LD1 catalytic core complex (human)
T1 sequence (Q9BT04 whole entry, looked up): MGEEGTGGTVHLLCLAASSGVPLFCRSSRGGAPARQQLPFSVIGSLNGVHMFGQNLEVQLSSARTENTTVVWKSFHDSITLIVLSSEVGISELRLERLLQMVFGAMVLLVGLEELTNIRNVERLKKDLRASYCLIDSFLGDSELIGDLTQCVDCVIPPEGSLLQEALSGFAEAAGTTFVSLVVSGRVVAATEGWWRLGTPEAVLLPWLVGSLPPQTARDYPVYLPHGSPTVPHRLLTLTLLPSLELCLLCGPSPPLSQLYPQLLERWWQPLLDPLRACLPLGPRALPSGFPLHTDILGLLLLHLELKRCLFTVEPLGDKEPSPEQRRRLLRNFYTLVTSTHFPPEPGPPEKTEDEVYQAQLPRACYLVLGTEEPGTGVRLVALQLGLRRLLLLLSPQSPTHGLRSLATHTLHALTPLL
T1 sequence (Q9ULD6 whole entry, looked up): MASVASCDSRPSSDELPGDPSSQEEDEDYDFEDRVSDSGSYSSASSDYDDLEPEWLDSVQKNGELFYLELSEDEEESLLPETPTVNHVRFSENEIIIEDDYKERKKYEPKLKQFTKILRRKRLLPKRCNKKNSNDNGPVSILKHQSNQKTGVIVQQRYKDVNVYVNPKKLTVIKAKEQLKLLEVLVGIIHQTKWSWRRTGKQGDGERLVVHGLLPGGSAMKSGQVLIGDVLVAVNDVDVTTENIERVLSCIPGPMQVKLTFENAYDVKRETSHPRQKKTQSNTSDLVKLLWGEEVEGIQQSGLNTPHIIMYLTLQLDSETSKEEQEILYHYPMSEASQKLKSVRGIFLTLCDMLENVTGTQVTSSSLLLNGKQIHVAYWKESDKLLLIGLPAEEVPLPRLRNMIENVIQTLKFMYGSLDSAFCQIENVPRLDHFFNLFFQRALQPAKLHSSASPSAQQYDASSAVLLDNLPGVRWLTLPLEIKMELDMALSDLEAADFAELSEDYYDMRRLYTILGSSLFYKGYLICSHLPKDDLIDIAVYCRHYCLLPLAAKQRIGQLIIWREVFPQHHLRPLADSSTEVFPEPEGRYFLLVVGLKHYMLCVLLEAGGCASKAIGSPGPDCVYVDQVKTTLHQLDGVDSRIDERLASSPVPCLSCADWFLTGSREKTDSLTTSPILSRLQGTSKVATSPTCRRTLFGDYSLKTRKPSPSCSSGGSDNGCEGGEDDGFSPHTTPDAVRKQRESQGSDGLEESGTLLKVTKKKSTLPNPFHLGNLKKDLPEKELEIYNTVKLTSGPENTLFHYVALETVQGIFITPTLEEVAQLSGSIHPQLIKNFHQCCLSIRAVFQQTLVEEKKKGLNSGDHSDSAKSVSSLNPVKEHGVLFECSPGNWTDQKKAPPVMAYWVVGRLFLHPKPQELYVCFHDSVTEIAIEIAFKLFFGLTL

T2: HsInturned (human Inturned) (human, UniProt Q9ULD6 1-942)
T2 construct: Inturned, human; the N-terminal PDZ domain is not visible in the map; also called FLAG-Inturned; source: Spodoptera frugiperda 21 cells (biGBac), coexpressed with Fuzzy and Rab23^N121I, purified (glutathione agarose, SEC)
T2 sequence: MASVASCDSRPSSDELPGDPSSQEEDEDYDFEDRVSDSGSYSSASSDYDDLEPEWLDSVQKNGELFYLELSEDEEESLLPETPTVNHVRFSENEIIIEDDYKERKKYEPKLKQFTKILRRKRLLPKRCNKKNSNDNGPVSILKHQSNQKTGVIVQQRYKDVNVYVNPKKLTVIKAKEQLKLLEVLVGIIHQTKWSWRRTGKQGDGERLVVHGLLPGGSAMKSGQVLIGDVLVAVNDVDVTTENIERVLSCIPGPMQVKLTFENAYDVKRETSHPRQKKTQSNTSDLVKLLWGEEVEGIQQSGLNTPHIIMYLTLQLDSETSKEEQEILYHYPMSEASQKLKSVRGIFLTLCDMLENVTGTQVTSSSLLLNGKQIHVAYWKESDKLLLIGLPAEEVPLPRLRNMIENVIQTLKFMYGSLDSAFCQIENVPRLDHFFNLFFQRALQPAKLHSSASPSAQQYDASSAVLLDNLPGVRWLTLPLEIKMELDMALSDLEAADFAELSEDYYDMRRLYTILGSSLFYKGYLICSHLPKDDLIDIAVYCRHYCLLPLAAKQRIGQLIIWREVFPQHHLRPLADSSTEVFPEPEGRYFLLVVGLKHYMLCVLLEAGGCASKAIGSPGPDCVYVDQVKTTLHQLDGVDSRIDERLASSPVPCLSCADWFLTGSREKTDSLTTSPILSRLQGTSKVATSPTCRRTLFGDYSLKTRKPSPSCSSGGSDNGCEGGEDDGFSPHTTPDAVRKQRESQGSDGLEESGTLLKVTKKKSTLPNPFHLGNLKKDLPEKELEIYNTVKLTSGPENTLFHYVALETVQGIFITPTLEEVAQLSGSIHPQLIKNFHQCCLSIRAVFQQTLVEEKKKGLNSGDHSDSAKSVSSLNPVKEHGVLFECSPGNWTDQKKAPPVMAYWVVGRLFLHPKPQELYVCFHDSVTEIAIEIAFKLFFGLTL

T3: HsFuzzy-Inturned complex (cryo-EM sample) (human, UniProt Q9BT04 2-418; Q9ULD6 1-942)
T3 construct: Fuzzy, human; as m5; Inturned, human; as m6; Heterodimer of m5 and m6; seen alone and with Rab23^N121I in the same cryo-EM sample; also called dimeric Fuzzy-Inturned complex; source: Spodoptera frugiperda 21 cells (biGBac), coexpressed, purified (glutathione agarose, SEC)
T3 sequence 1: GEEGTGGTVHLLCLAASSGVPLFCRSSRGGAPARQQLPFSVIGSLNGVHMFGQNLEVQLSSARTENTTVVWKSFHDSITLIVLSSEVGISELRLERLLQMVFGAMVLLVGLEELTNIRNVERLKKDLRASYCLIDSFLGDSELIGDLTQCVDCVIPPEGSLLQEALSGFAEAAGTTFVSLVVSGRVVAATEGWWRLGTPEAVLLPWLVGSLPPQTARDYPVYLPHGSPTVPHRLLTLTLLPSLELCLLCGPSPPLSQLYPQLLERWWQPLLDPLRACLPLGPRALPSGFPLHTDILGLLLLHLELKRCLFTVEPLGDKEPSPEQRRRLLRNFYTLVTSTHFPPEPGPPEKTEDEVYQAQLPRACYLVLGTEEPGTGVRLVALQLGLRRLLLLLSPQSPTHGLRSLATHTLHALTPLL
T3 sequence 2: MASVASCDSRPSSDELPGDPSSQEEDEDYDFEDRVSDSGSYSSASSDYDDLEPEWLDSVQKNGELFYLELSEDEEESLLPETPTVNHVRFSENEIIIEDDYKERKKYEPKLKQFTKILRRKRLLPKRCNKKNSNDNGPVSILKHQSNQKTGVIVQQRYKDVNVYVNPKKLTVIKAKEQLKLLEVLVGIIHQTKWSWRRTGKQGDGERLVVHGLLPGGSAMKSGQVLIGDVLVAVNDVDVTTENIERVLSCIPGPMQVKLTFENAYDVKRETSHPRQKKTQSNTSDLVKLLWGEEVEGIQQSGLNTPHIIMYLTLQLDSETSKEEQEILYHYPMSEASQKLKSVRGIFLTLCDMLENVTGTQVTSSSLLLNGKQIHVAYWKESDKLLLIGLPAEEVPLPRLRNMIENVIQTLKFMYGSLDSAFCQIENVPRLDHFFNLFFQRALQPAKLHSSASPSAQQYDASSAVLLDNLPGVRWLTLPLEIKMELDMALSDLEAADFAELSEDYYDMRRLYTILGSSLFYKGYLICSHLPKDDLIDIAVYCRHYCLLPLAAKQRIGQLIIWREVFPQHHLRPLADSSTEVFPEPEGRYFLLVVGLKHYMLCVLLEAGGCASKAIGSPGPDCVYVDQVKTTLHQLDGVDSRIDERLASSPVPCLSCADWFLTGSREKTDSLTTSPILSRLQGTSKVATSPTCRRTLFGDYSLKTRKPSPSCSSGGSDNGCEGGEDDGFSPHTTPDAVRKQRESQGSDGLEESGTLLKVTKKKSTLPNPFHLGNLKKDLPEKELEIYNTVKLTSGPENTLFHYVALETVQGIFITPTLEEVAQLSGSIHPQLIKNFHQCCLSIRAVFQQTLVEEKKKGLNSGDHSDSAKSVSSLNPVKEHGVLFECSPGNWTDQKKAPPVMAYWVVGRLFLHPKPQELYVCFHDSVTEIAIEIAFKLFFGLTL

B1: HsFuzzy (human Fuzzy) (natural protein)
chain: GEEGTGGTVHLLCLAASSGVPLFCRSSRGGAPARQQLPFSVIGSLNGVHMFGQNLEVQLSSARTENTTVVWKSFHDSITLIVLSSEVGISELRLERLLQMVFGAMVLLVGLEELTNIRNVERLKKDLRASYCLIDSFLGDSELIGDLTQCVDCVIPPEGSLLQEALSGFAEAAGTTFVSLVVSGRVVAATEGWWRLGTPEAVLLPWLVGSLPPQTARDYPVYLPHGSPTVPHRLLTLTLLPSLELCLLCGPSPPLSQLYPQLLERWWQPLLDPLRACLPLGPRALPSGFPLHTDILGLLLLHLELKRCLFTVEPLGDKEPSPEQRRRLLRNFYTLVTSTHFPPEPGPPEKTEDEVYQAQLPRACYLVLGTEEPGTGVRLVALQLGLRRLLLLLSPQSPTHGLRSLATHTLHALTPLL
notes: Fuzzy, human; also called His-SUMO-Fuzzy; source: Spodoptera frugiperda 21 cells (biGBac), coexpressed with Inturned and Rab23^N121I, purified (glutathione agarose, SEC)

Columns and labels:
[1] = target: T1, Fuzzy^LD1-Inturned^LD1 catalytic core complex (human)
[2] = target: T2, HsInturned (human Inturned); test: cryo-EM structure; HsFuzzy, HsInturned and HsRab23^N121I coexpressed in insect cells, complex purified; ~0.7 mg/ml; 0.002% lauryl maltose neopentyl glycol on grid; dimeric and trimeric particles in one sample; 50 mM tris, 200 mM NaCl, 0.5 mM TCEP, 1 mM MgCl2 (pH 8); conditions: both partners purified
HsFuzzy (human Fuzzy) = target: B1; test: as above; conditions: both partners purified
[3] = target: T3, HsFuzzy-Inturned complex (cryo-EM …); test: as above; conditions: both partners purified

binding result [2] | binding result (HsFuzzy (human Fuzzy)) | binding result [3] | Binder | stimulation of nucleotide exchange (MANT-GDP release) of Rab23^I33A/T35A by Fuzzy^LD1-Inturned^LD1, against Rab23 WT [1] [fold]
 |  |  | Rab23^I33A/T35A (natural protein) MLEEDMEVAIKMVVVGNGAVGKSSMIQRYCKGAFAKDYKKTIGVDFLERQIQVNDEDVRLMLWDTAGQEEFDAITKAYYRGAQACVLVFSTTDRESFEAVSSWREKVVAEVGDIPTVLVQNKIDLLDDSCIKNEEAEALAKRLKLRFYRTSVKEDLNVNEVFKYLAEKYLQKLKQQIAEDPELTHSSSNKIGVFNTSGGSHSGQNSGTLNGGDVINLRPNKQRTKKNRNPFSSCSIP | 5
binds |  |  | B1 | 
binds | binds | binds | HsRab23^N121I (nucleotide-free mutant of human Rab23) (natural protein, Rab23, human; also called GST-Rab23^N121I; source: Spodoptera frugiperda 21 cells (biGBac), coexpressed with Fuzzy and Inturned, purified (glutathione agarose, SEC); not shown: GST, N-terminal, cleaved) LEEDMEVAIKMVVVGNGAVGKSSMIQRYCKGIFTKDYKKTIGVDFLERQIQVNDEDVRLMLWDTAGQEEFDAITKAYYRGAQACVLVFSTTDRESFEAVSSWREKVVAEVGDIPTVLVQIKIDLLDDSCIKNEEAEALAKRLKLRFYRTSVKEDLNVNEVFKYLAEKYLQKLKQQIAEDPELTHSSSNKIGVFNTSGGSHSGQNSGTLNGGDVINLRPNKQRTKKNRNPFSSCSIP | 

From paper PMC12383261, “Mechanistic adaptation of the metazoan RabGEFs Mon1-Ccz1 and Fuzzy-Inturned” (Science Advances, 2025)
